Test results taken from US10993912B2, “Carrier-antibody compositions and methods of making and using the same” (MAYO FOUNDATION FOR MEDICAL EDUCATION AND RESEARCH, priority 2014, dated 2021).

How the values were obtained:
ABX [1] = target: T1, ABX (Homo sapiens, UniProt P02768); assay: Bio-Layer Interferometry (BLItz) binding assay of antibody and ABX; settings: for dependence of binding affinity to ABX on pH / temperature: pH 3, 5, 7, 9, for BEV also RT, 37° C. and 58° C.
T1 construct: purchased Celgene Corporation, Summit, N.J
Description: The association and dissociation constants were calculated using the BLItz software.

[2] = system: Daudi human lymphoma cells; assay: Daudi xenograft efficacy in athymic nude mice; type: in vivo; settings: ABX 30 mg/kg, rituximab 12 mg/kg
Description: Tumor response was determined at day 7 post-treatment by the percent change in tumor size from the first day of treatment.
(§1) To test tumor efficacy, 1×10^6 A375 human melanoma cells were implanted into the right flank of athymic nude mice (Harlan Sprague Dawley, Indianapolis, Ind.). […] Tumor size was monitored 3 times/week and tumor volume was calculated with the following equation: (length*width^2)/2. Mice were sacrificed when the tumor size equaled 10% of the mouse body weight or about 2500 mm^3. The day 7 percent change from baseline was calculated as follows: [(tumor size on treatment day-tumor size on day 7)/tumor size on treatment day]*100.

[3] = system: A375 human melanoma cells; assay: A375 xenograft efficacy in athymic nude mice; type: in vivo; settings: Example 5; ABX 30 mg/kg, BEV 12 mg/kg, tumors about 700 mm^3 at treatment
Description: Tumor response was determined at day 7 post-treatment by the percent change in tumor size from the day of treatment.
In vivo experiments were performed at least 2 times. The number of mice required for those experiments was determined by power analysis. Mouse tumors were measured 2-3 times/week and mice were sacrificed when the tumor was 10% by weight. […] The end point of the mouse studies was median survival. Kaplan-Meier curves were generated and Mantle-Cox test was performed to determine significance of median survival between treatment groups. The in vitro results presented are representative of at least 5 repeated experiments. Statistical analyses of in vitro and in vivo percent change from baseline experiments were done using the Student's t-test.
as §1

[4] = system: A375 human melanoma cells; assay: A375 xenograft, pretreatment with BEV before AB160; type: in vivo, athymic nude mice; settings: 12 mg/kg dose
Excerpt: Data is represented at day 7-post and 10-day treatment as tumor volume in mm^3.
Data is represented at day 7-post and day 10-post treatment as tumor volume in mm^3. F 11A-E track tumor size over 10 days. […] See also FIG. 11F and FIG. 11G.

ABX [5] = target: T1, ABX; assay: Binding of cisplatin to ABX, free cisplatin by HPLC; settings: ABX 5 mg/ml, cisplatin 0.5 mg/ml, room temperature 30 minutes

Row | Molecule | binding affinity to ABX (in words) (ABX [1]) | dependence of binding affinity to ABX on pH / temperature (ABX [1]) | median survival [2] [days] | median survival [3] [days] | therapeutic effect of BEV alone [4] | cisplatin remaining in the supernatant (ABX [5]) [%]
1 | rituximab | picomolar range | decreased with higher pH | 12 |  |  | 
2 | bevacizumab | picomolar range | highest binding affinity observed when the particles are formed at pH 5 and 58 °C |  | 14 | not therapeutic | 
3 | N.N.[Cl][Pt][Cl] [cisplatin] |  |  |  |  |  | 40
